Reference: US10183971B2, “SAA-domain-specific antibodies and peptide antagonists and use thereof to treat inflammatory diseases” (The Feinstein Institute For Medical Research, priority 2013, dated 2019)
Where two headings read alike, the source gives them in different places.

B1: human SAA: human serum amyloid A, recombinant protein (Cat. No. 300-13, PeproTech) (protein)
chain: RSFFSFLGEAFDGARDMWRAYSDMREANYIGSDKYFHARGNYDAAKRGPGGAWAAEVITDARENIQRFFGHGAEDSLADQAANEWGRSGKDPNHFRPAGLPEKY
B2: human SAA1: human SAA1 (Cat. No. 300-53, PeproTech) (protein)
chain: B1 chain
B3: KC: inflammatory mediator, sepsis surrogate marker (protein, UniProt P12850 25-96, looked up)
Growth-regulated alpha protein: APIANELRCQCLQTMAGIHLKNIQSLKVLPSGPHCTQTEVIATLKNGREACLDPEAPLVQKIVQKMLKGVPK

Assays:
human monocytes = experiment: HMGB1 release in human monocyte cultures (Western blots); type: cell-based; conditions: 1-10 μg/ml, 16 h
Description: (§1) FIG. 4A-4C. […] A, Amino acid sequence of human and murine SAAs (SEQ ID NOS:19-23, top to bottom). B, Western blots of human SAA and SAA1. Note that the anti-HMGB1 IgGs paradoxically cross-reacted with huSAA, but not huSAA1. […] Murine macrophages and human monocytes were stimulated with huSAA or huSAA1 for 16 h, and extracellular HMGB 1 levels were determined by Western blots.
(§2) Overall, there is a >95-98% amino acid sequence homology between members of the human or murine SAA families, and a >75% identity across human and murine families (FIG. 4A), making it seemingly difficult to distinguish between different SAA members by immunoassays. Indeed, the polyclonal antibodies raised against human SAA cross-reacted with both human SAA and SAA1 on Western blots (FIG. 4B, bottom panel). Intriguingly, our rabbit anti-HMGB1 IgGs “specifically” recognized human SAA, but not SAA1, on Western blots (FIG. 4B), implicating a possibility of selectively immunodetecting human SAA with appropriate antibodies.

Balb/C mice = type: in vivo; conditions: LPS 5 mg/kg i.p. in combination with SAA 0.8 mg/kg
murine macrophages = experiment: HMGB1 release in murine macrophage cultures (Western blots); type: cell-based; conditions: 1-10 μg/ml, 16 h
Description: as §1, §2

HMGB1 release = HMGB1 release in vitro by inflammatory mediators (data not shown); type: cell-based

Row | Molecule | induction of HMGB1 release (human monocytes) | induction of HMGB1 release (human monocytes; listed as HuSAA) | effect on LPS-induced animal lethality (Balb/C mice; listed as Recombinant SAA protein) | effect on LPS-induced animal lethality (Balb/C mice; listed as SAA) | induction of HMGB1 release (murine macrophages) | induction of HMGB1 release (murine macrophages; listed as HuSAA) | induction of HMGB1 release in vitro (HMGB1 release)
1 | B1 | effectively induced HMGB1 release | induced HMGB1 release | dramatically exacerbated | exacerbated LPS-induced animal lethality | effectively induced HMGB1 release | induced HMGB1 release | 
2 | B2 | barely triggered HMGB1 release |  |  |  | barely triggered HMGB1 release |  | 
3 | B3 |  |  |  |  |  |  | unable to induce HMGB1 release
